Test results reported in patent US20240239915A1 (Zymeworks, published 2024).

T1: Recombinant Human Fc gamma RIIA/CD32a (R167) Protein (R&D Systems), His-tagged (human, UniProt P12318 36-218)
T1 construct: also called human FcγRIIa; hFcγRIIa
T1 chain: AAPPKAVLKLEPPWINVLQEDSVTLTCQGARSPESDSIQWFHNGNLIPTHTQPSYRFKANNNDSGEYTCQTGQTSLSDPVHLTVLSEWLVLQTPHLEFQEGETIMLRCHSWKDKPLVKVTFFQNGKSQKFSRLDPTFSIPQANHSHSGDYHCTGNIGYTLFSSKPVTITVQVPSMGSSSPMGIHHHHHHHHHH

T2: Recombinant Human Fc gamma RIIIB/CD16b Protein (R&D Systems), His-tagged (human, UniProt O75015 20-208)
T2 construct: also called human FcγRIIIb; hFcγRIIIb
T2 chain: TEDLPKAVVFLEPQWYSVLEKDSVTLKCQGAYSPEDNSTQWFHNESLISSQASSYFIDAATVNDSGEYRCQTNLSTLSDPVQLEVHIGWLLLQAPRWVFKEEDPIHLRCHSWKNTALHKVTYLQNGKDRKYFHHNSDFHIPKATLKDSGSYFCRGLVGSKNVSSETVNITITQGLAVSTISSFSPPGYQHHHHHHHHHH

T3: Recombinant Human Fc gamma RIIB/C (CD32b/c) Protein (R&D Systems), His-tagged (human, UniProt P31994 46-217)
T3 construct: also called human FcγRIIb/c; hFcγRIIb/c
T3 sequence: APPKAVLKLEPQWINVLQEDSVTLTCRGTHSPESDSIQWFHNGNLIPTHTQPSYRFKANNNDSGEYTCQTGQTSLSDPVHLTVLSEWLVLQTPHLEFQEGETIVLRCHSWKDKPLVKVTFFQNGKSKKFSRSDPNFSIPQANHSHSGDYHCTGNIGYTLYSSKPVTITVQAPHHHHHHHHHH


Tests used:
[1] = target: T1, Recombinant Human Fc gamma RIIA/CD32a …; test: SPR (Biacore T200); receptor immobilized directly on CM5 chip, antibody as analyte at 4.7 µM
Procedure: (§1) After immobilizing human FcγR as a ligand directly on the sensor chip, various anti-EGFR antibodies as analysts were added to the sensor chip to measure an interaction between the ligand and the analysts by the SPR method.

[2] = target: T2, Recombinant Human Fc gamma RIIIB/CD16b …; test: as above
Procedure: as §1

[3] = target: T4, Recombinant Human Fc gamma RIIIA/CD16a protein (R&D Systems), His-tagged (human, UniProt P08637 17-208); test: as above
T4 construct: also called human FcγRIIIa; hFcγRIIIa
Procedure: as §1

[4] = target: T3, Recombinant Human Fc gamma RIIB/C …; test: as above
Procedure: as §1

[5] = target: T5, Recombinant Human Fc gamma RI/CD64 Protein, CF (R&D Systems), His-tagged (human, UniProt P12314 16-288); test: SPR (Biacore T200), RU at 4.7 µM antibody, anti-LPS antibody O11-1111
T5 construct: also called human FcγRI; hFcγRI
Procedure: (§2) The binding activity of an anti-EGFR antibody, into which known effectorless mutations were introduced, to human FcγRI (hFcγRI), was evaluated using Biacore™ T200 (Cytiva, Marlborough, MA). […] The noted mutations were introduced into both CH2 domains of the Fc region. […] The FcγRI ligand was captured on a sensor chip on which anti-His antibodies were immobilized. Various anti-EGFR antibodies as analytes were then added to the sensor chip to measure an interaction between the ligand and the analyte by surface plasmon resonance (SPR) method.
(§3) Briefly, anti-6×His tag antibodies [AD1.1.10] (Abcam plc, Cambridge, UK) were immobilized on Sensor Chip CM5 (Cytiva, Marlborough, MA) according to the manufacturer's instructions, and then Recombinant Human Fc gamma RI/CD64 Protein (R & D Systems) prepared at 10 μg/mL in HBS-EP+ (GE Healthcare, Chicago, IL) was captured by contacting it with the sensor chip at 10 μL/min for 60 seconds.

[6] = target: T5, Recombinant Human Fc gamma RI/CD64 …; test: SPR (Biacore T200); His-tagged receptor captured on anti-His antibody chip, antibody as analyte at 4.7 µM; reference: LALA variant of the same antibody (anti-LPS O11-1111)
Procedure: as §2, §3

[7] = target: T5, Recombinant Human Fc gamma RI/CD64 …; test: SPR (Biacore T200): His-tagged human FcγRI captured on an anti-His antibody chip, antibody as analyte; RU plotted against antibody concentration
[8] = target: T5, Recombinant Human Fc gamma RI/CD64 …; test: SPR (Biacore T200), RU at 4.7 µM antibody, anti-CD70 antibody vorsetuzumab
Procedure: The FcγRI ligand was captured on a sensor chip on which anti-His antibodies were immobilized. Various anti-EGFR antibodies as analytes were then added to the sensor chip to measure an interaction between the ligand and the analyte by surface plasmon resonance (SPR) method.
Briefly, anti-6×His tag antibodies [AD1.1.10] (Abcam plc, Cambridge, UK) were immobilized on Sensor Chip CM5 (Cytiva, Marlborough, MA) according to the manufacturer's instructions, and then Recombinant Human Fc gamma RI/CD64 Protein (R & D Systems) prepared at 10 μg/mL in HBS-EP+ (GE Healthcare, Chicago, IL) was captured by contacting it with the sensor chip at 10 μL/min for 60 seconds. Then, the anti-EGFR antibody prepared at each of the given concentrations in HBS-EP+ was added to the sensor chip at a flow rate of 30 μL/min for 120 seconds.

T5 sequence (P12314 other isoform, or with tags, fused parts or gaps): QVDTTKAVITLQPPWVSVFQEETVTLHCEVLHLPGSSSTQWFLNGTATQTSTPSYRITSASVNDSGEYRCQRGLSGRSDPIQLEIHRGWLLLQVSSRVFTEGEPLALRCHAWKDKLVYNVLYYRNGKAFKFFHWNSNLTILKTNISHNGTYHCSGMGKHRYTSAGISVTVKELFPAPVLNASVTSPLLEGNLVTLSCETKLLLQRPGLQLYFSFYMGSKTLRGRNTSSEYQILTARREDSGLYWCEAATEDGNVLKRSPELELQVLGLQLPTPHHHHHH
T4 sequence (P08637 other isoform, or with tags, fused parts or gaps): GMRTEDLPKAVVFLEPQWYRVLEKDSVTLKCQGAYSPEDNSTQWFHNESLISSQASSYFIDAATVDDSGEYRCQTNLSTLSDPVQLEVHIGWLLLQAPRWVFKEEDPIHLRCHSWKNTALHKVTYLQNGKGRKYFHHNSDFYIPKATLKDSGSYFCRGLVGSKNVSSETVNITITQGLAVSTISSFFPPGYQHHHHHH

Binder	binding response (RU) [1]	binding response (RU) [2]	binding response (RU) [3]	binding response (RU) [4]	RU value relative to the LALA variant [5]	RU value relative to that of the LALA variant [6]	binding result [7]	RU value relative to the LALA variant [8]
LALA-DG variant of the anti-LPS antibody O11-1111 (IgG1) (antibody, substitutions in EU numbering; also called Anti-LPS Antibody LALA-DG) heavy: QVQLVQSGAEVKKPGASVKVSCKASGYTFTSYWINWVRQAPGQGLEWMGNIYPGSSSINYNEKFKSRVTITADTSTSTAYMELSSLRSEDTAVYYCARTIYNYGSSGYNYAMDYWGQGTLVTVSSASTKGPSVFPLAPSSKSTSGGTAALGCLVKDYFPEPVTVSWNSGALTSGVHTFPAVLQSSGLYSLSSVVTVPSSSLGTQTYICNVNHKPSNTKVDKRVEPKSCDKTHTCPPCPAPEAAGGPSVFLFPPKPKDTLMISRTPEVTCVVVGVSHEDPEVKFNWYVDGVEVHNAKTKPREEQYNSTYRVVSVLTVLHQDWLNGKEYKCKVSNKALPAPIEKTISKAKGQPREPQVYTLPPSREEMTKNQVSLTCLVKGFYPSDIAVEWESNGQPENNYKTTPPVLDSDGSFFLYSKLTVDKSRWQQGNVFSCSVMHEALHNHYTQKSLSLSPGK light: DIVMTQSPDSLAVSLGERATINCKASENVGNSVSWYQQKPGQPPKLLIYGASNRYTGVPDRFSGSGSGTDFTLTISSLQAEDVAVYYCGQSYSYPYTFGQGTKVEIKRTVAAPSVFIFPPSDEQLKSGTASVVCLLNNFYPREAKVQWKVDNALQSGNSQESVTEQDSKDSTYSLSSTLTLSKADYEKHKVYACEVTHQGLSSPVTKSFNRGEC	-2.2 RU	-7.1 RU	-7.2 RU	-2.6 RU	~0.0033 fold	~0.0033 ratio (LALA-DG RU / LALA RU)		
LALA-DG variant of the anti-CD70 antibody vorsetuzumab (IgG1) (antibody, name in EU numbering, also called Anti-CD70 Antibody LALA-DG) heavy: QVQLVQSGAEVKKPGASVKVSCKASGYTFTNYGMNWVRQAPGQGLKWMGWINTYTGEPTYADAFKGRVTMTRDTSISTAYMELSRLRSDDTAVYYCARDYGDYGMDYWGQGTTVTVSSASTKGPSVFPLAPSSKSTSGGTAALGCLVKDYFPEPVTVSWNSGALTSGVHTFPAVLQSSGLYSLSSVVTVPSSSLGTQTYICNVNHKPSNTKVDKRVEPKSCDKTHTCPPCPAPEAAGGPSVFLFPPKPKDTLMISRTPEVTCVVVGVSHEDPEVKFNWYVDGVEVHNAKTKPREEQYNSTYRVVSVLTVLHQDWLNGKEYKCKVSNKALPAPIEKTISKAKGQPREPQVYTLPPSREEMTKNQVSLTCLVKGFYPSDIAVEWESNGQPENNYKTTPPVLDSDGSFFLYSKLTVDKSRWQQGNVFSCSVMHEALHNHYTQKSLSLSPGK light: DIVMTQSPDSLAVSLGERATINCRASKSVSTSGYSFMHWYQQKPGQPPKLLIYLASNLESGVPDRFSGSGSGTDFTLTISSLQAEDVAVYYCQHSREVPWTFGQGTKVEIKRTVAAPSVFIFPPSDEQLKSGTASVVCLLNNFYPREAKVQWKVDNALQSGNSQESVTEQDSKDSTYSLSSTLTLSKADYEKHKVYACEVTHQGLSSPVTKSFNRGEC		-3.7 RU	-2.1 RU	1.3 RU			no binding (tested: 4.7 µM)	~0.005 fold
